Experimental data from IntAct's records for PubMed 37595036.

B1: CDK5 regulatory subunit-associated protein 3 (Homo sapiens), Q96JB5 (parent)
chain: MEDHQHVPIDIQTSKLLDWLVDRRHCSLKWQSLVLTIREKINAAIQDMPESEEIAQLLSGSYIHYFHCLRILDLLKGTEASTKNIFGRYSSQRMKDWQEIIALYEKDNTYLVELSSLLVRNVNYEIPSLKKQIAKCQQLQQEYSRKEEECQAGAAEMREQFYHSCKQYGITGENVRGELLALVKDLPSQLAEIGAAAQQSLGEAIDVYQASVGFVCESPTEQVLPMLRFVQKRGNSTVYEWRTGTEPSVVERPHLEELPEQVAEDAIDWGDFGVEAVSEGTDSGISAEAAGIDWGIFPESDSKDPGGDGIDWGDDAVALQITVLEAGTQAPEGVARGPDALTLLEYTETRNQFLDELMELEIFLAQRAVELSEEADVLSVSQFQLAPAILQGQTKEKMVTMVSVLEDLIGKLTSLQLQHLFMILASPRYVDRVTEFLQQKLKQSQLLALKKELMVQKQQEALEEQAALEPKLDLLLEKTKELQKLIEADISKRYSGRPVNLMGTSL

Variants of: B1
Conditions: with ufc1_human UFC1, Q9Y3C8
Chain of ufc1_human UFC1, Q9Y3C8 (Q9Y3C8 whole entry): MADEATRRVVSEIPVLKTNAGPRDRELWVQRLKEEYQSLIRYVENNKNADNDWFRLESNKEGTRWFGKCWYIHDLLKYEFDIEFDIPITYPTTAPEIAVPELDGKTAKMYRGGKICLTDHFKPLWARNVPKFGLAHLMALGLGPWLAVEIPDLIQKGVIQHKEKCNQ
With MEDHQHVPIDIQTSKLLDWLVDRRHCSLKWQSLVLTIREKINAAIQDMPESEEIAQLLSGSYIHYFHCLRILDLLKGTEASTKNIFGRYSSQRMKDWQEIIALYEKDNTYLVELSSLLVRNVNYEIPSLKKQIAKCQQLQQEYSRKEEECQAGAAEMREQFYHSCKQYGITGENVRGELLALVKDLPSQLAEIGAAAQQSLGEAIDVYQASVGFVCESPTEQVLPMLRFVQKRGNSTVYEWRTGTEPSVVERPHLEELPEQVAEDAADAGDFGVEAVSEGTDSGISAEAAGIDWGIFPESDSKDPGGDGIDWGDDAVALQITVLEAGTQAPEGVARGPDALTLLEYTETRNQFLDELMELEIFLAQRAVELSEEADVLSVSQFQLAPAILQGQTKEKMVTMVSVLEDLIGKLTSLQLQHLFMILASPRYVDRVTEFLQQKLKQSQLLALKKELMVQKQQEALEEQAALEPKLDLLLEKTKELQKLIEADISKRYSGRPVNLMGTSL [I267A;W269A] the “effect of a mutation on the interaction” value was “decreasing interaction strength”.
